Laboratory results as given in PMC6200863, “Hydrogen Peroxide-Based Fluorometric Assay for Real-Time Monitoring of SAM-Dependent Methyltransferases” (Frontiers in Bioengineering and Biotechnology, 2018).

Substrate: O=C(O)c1ccccc1O
Test: Mtn/XOD/HRP-coupled Amplex Red fluorescence, initial rates, non-linear regression
Format: biochemical, Clarkia breweri
Details: 0.5 mM SAM, 5 mM MgCl2, 1 mM KCl, pH 7.5, 30°C, coupling enzymes possibly rate-limiting

B1: SA MTase (salicylic acid methyltransferase) (Clarkia breweri) (protein)
chain: MDVRQVLHMKGGAGENSYAMNSFIQRQVISITKPITEAAITALYSGDTVTTRLAIADLGCSSGPNALFAVTELIKTVEELRKKMGRENSPEYQIFLNDLPGNDFNAIFRSLPIENDVDGVCFINGVPGSFYGRLFPRNTLHFIHSSYSLMWLSQVPIGIESNKGNIYMANTCPQSVLNAYYKQFQEDHALFLRCRAQEVVPGGRMVLTILGRRSEDRASTECCLIWQLLAMALNQMVSEGLIEEEKMDKFNIPQYTPSPTEVEAEILKEGSFLIDHIEASEIYWSSCTKDGDGGGSVEEEGYNVARCMRAVAEPLLLDHFGEAIIEDVFHRYKLLIIERMSKEKTKFINVIVSLIRKSD
  Km: 6.8 (±1.0) μM
  kcat: 0.98 (±0.3) min^-1
